From article PMC3383883 (ACS Nano, 2012)

Biological target: bovine serum albumin (Bos taurus, UniProt P02769)
Assay: carbon nanotube field-effect transistor

bovine serum albumin, sequence (P02769 25-607): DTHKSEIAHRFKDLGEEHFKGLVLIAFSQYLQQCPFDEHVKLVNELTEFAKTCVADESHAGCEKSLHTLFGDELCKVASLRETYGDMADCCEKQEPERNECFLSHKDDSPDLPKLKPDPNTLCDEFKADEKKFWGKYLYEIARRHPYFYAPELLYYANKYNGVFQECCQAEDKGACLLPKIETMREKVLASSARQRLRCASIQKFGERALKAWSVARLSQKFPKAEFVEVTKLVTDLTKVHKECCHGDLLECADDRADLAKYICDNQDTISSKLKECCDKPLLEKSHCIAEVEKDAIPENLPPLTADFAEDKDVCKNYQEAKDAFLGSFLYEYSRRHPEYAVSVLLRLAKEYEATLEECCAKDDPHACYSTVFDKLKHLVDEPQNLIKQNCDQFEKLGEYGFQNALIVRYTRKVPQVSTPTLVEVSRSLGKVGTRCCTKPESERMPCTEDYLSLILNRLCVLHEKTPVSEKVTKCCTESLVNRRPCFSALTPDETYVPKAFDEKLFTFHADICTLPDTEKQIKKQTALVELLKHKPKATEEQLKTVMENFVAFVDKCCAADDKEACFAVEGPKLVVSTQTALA

binding result: no binding (tested: 450 ng/mL)
B1: anti-OPN 23C3 scFv (scFv, V domains shown)
VH: EVQLVESGGGLVQPKGSLKISCAASGFTFNIYAMNWVRQAPGKGLEWVARIRSQSNNYTTYYADSVKDRFTISRDDSQSMLYLQMNNLKTEDTAMYYCVRQMGDYWGQGTTLTVSS
VL: YIQMTQSPASLSVSVGETVTITCRASENIYSFLAWYQQKQGKSPQLLVYAATNLADGVPSRFSGSGSGTQFSLKINSLQSEDFGTYYCQHFWGTPFTFGSGTKLEIK
